This series deals with CsrA (Escherichia coli (K-12 MG1655?)) (UniProt P69913). The series is described as follows: EMSA. To be noted: binding buffer, pH and temperature not given.
Chain of CsrA (Escherichia coli (K-12 MG1655?)) (P69913 whole entry): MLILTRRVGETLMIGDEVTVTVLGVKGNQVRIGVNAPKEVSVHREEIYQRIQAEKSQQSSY

“GGGAGGUAAUUUUGGUUUUCCCGGCCAAAAAUGGACAAUAACCACCAGGAAAAGGAGACGGAAUGCAUCACGCCACCCCGCUUAUCACCACCAUUGUUGGCGGCCUUGUGCUCGCCUUUAUCCUCGGCAUGCUGGCCAAUAAACUACGUAUUUCUCCUCUGG [ybaL leader]”: the binding result is on record as “binds”.
Regarding “GGGAGAACGGUUAACUUAACGGAUGUUUCGCGGUGUGGGUGAGCAUGAUGGUUCACCGGCAUCUCAAUUCUCAUUUAAACGUACCUGCAGCGAAUGAAUACUGAAGCCACGCACGACCAAAAUGAAGCACUUACUACCGGCGCUCGCCUGCGUAAUGCUCGCGAACAACUAGGACUUAGUCAGCAGGCCGUUG [rodZ leader]”, the binding entry is given as “binds”.
With “GGGAUAAUGCGCUUUCUUUAGCCGUUAAUAUCCACCGGCAUGGCUGCGCGCCGUGCCGGUUCCUUCUUGCUUGGCGUCACUCUUUGAAGACGCAUUCUGCAGUUUACGAUGACUACUAUUGUUGACAGCAAUCUGCCGGUUGCCCGCCCGUCAUGGGAUCAUUCUCGUCUGGAAUCACGCAUUGUGCAUCUCGGUUGCGGGGCGUUUCGCAUGC [uxuB 5' UTR mutant (UPSTR mut)]”, the K half was 144 nM.
In the case of “GGGAGAUUUGUGUUUAUCCCGAUUUUCGCGAUCGCAGCCGGAGUGGCGCAAUCCCUGCAAUACUUAAAUCGGUAUCAUGUGAUACGCGAGCCUCCGGAGCAUAUUUUGAACAGGUUACCUUCGAGCGCAUCGGCUUUAGCGUGCAGCGCCCACGCCCUGAAUCUCAUUGAGAAGCGAACGCUGGAUCAUGAGGAGAUGAAAGCAC [patA leader]”, the binding result is recorded as “binds”.
On the same count and under the same terms, for “GGGAGGUUUGCUUUUAGGUUAGCGACCGAAAAUAUAAAUGAUAAUCAUUAUUAAAGCCUUUAUCAUUUUGUGGAGGAUGAUAUGGAUACGUCACUGGCUGAGGAAGUACAGCAGACCAUGGCAACACUUGCGCCCAAUCGCUUUUUCUUUAUGUCGCCGUACCGCAGUUUUACGACGUCAG [entC leader]” the value was “binds”.

The values are drawn from publication doi:10.1101/2024.09.28.615595.
